Here are results for two molecules from patent US20060040861A1, “Method of treating, preventing, and diagnosing prostate cancer” (priority 2004, published 2006).

In assay [1] the test system is LNCaP-FGC cells. The experiment in a line: MTT assay (cell growth / viability). It counts as cell-based, human. To be noted: 5 days. The method, then: (§1) DU145 (1×10^3/well), PC-3 (1×10^3/well) and LNCaP-FGC (1.5×10^3/well) cells were seeded in 96-well plates 24 hours prior to serum starvation. Cells were starved of serum for 24 hours and then incubated in the serum-free medium with or without 12.5 μg/ml leptin for 5 days. 3-(4,5-dimethylthiazol-2-yl)-2,5-diphenyl tetrazolium bromide (MTT) was added to each well to a concentration of 0.5 mg/ml. After 3-hour incubation at 37° C., cells were lysed in 50% dimethylformamide and 20% SDS at 37° C. Optical densities (O.D.) at 550 nm and 670 nm were measured by a plate reader, and differential O.D. between 550 nm and 670 nm (O.D. 550 nm minus O.D. 670 nm) were determined. Each experiment was performed in quadruplicate, and the values are reported as mean±SD.
(§2) DU145 (0.5-1.0×10^3/well), PC-3 (0.5-1.0×10^3/well), and LNCaP FGC (0.75-1.5×10^3/well) cells were seeded in 96-well plates 24 hours prior to serum starvation. Cells were starved of serum for 24 hours and then incubated in the serum-free medium with or without cytokine(s), DHT and/or doxorubicin at indicated concentrations for 5 days. MTT was added to each well to a concentration of 0.5 mg/ml. After being incubated at 37° C. for 3 hours, cells were lysed in 50% dimethylformamide and 20% SDS at 37° C. Optical densities (OD) at 550 and 670 nm were measured by a plate reader, and differential OD between 550 and 670 nm (OD 550 minus OD 670 nm) were determined. Each experiment was performed in quadruplicate, and the values were reported as mean±S.D.

The subject of assay [2] is PC-3 cells. The experiment in a line: MTT assay (cell growth / viability). It is filed as cell-based, human. As to conditions: 5 days. The method, then: as §1, §2
A general note: Tetrazolium assays rely on reduction of a dye to a coloured formazan, in cell work by metabolically active cells.

The subject of assay [3] is JNK. As to the kind of experiment: In vitro JNK assay on lysates of treated human cancer cells. It counts as cell-based. The method, then:
(§3) Eighty-percent confluent prostate cancer cells were starved in the serum-free medium for 24 hours and then treated by 12.5 μg/ml leptin or 10 μg/ml anisomycin for the indicated periods. In some experiments, cells were pretreated with SP600125 prior to cytokine stimulation as described below. Cells were washed twice with cold PBS, harvested by a scraper and centrifuged for 10 minutes at 700×g at 4° C. The pellet was homogenized in the cell lysis buffer (20 mM HEPES, pH 7.9, 300 mM NaCl, 1 mM EDTA, 15% glycerol, 0.5% NP-40, 1 mM Na3VO4, 1 μg/ml leupeptin, 5 μg/ml aprotinin, 1 μg/ml pepstatin and 1 mM PMSF) and incubated at 4° C. with gentle rocking for 30 minutes. This homogenate was centrifuged for 5 minutes at 15,000×g, and the supernatant was saved as a cell lysate and stored at −80° C. until use.
JNK activity was measured using the SAPK/JNK Assay Kit (Cell Signaling Technology Inc.) according to the manufacture's instructions. Briefly, JNK was precipitated in 250 μl of cell lysates (250 μg protein) with 2 μg of glutathione Sepharose beads immobilized by a recombinant fusion protein of the c-Jun N-terminus (1-89) and glutathione S-transferase as a JNK substrate. After being washed with the cell lysis buffer 3 times, the precipitates were incubated in 50 μl of the kinase buffer containing 100 μM ATP at 30° C. for 30 minutes. The reaction was stopped by addition of the SDS sample buffer. The N-terminal c-Jun (1-89) fusion protein was separated by SDS-polyacrylamide gel electrophoresis, and its phoshporylation was determined by Western blot analysis using anti-phospho-c-Jun (Ser-63) polyclonal antibody as described above. JNK protein levels in cell lysates were also measured by Western blot analysis using anti-JNK antibody to normalize sample variations.
(§4) Seventy-percent confluent cells were deprived of serum for 24 hours, followed by treatment with 1 μg/ml f- or g-adiponectin or 10 μg/ml anisomycin for indicated periods. After being rinsed with cold phosphate-buffered saline, cells were harvested using a scraper and collected by centrifugation at 700×g for 10 minutes at 4° C. The cell pellets were then homogenized in cell lysis buffer (20 mM HEPES, pH 7.9, 300 mM NaCl, 1 mM Na3VO4, 1 μg/ml leupeptin, 5 μg/ml aprotinin, 1 μg/ml pepstatin, and 1 mM phenylmethylsulfonyl fluoride) and rocked gently for 30 minutes at 4° C. The homogenates were centrifuged at 15,000×g for 5 minutes at 4° C., and the supernatants were saved as cell lysates and stored at −80° C. until use.
Using the stress-activated protein kinase/JNK assay kit, JNK activity was assessed with a fusion protein of the c-Jun NH2 terminus (amino acids 1 to 89) and glutathione S-transferase as a substrate according to the manufacture's instructions with some modifications as reported before (M. Onuma, et al., supra, 2003). Briefly, JNK was precipitated in cell lysates (250-500 μg of protein) with 2 μg of glutathione-Sepharose beads immobilized by the fusion protein. The precipitates were rinsed with the cell lysis buffer three times, followed by incubation in 50 μl of the kinase buffer containing 100 μM ATP at 30° C. for 30 minutes. The reaction was terminated by adding the SDS sample buffer. The substrate fusion protein was separated by SDS-polyacrylamide gel electrophoresis, and its phosphorylation by JNK was determined by Western blot analysis using anti-phospho-c-Jun (Ser-63) polyclonal antibody. To normalize sample variations, JNK protein levels were also determined by Western blot analysis using anti-JNK antibody.

In assay [4] the test system is c-Jun. The experiment in a line: Western blot analysis of c-Jun phosphorylation in human cancer cells. It counts as cell-based. The method, then: as §3
Cell lysates containing 100 μg of protein were electrophoresed on 10% SDS-polyacrylamide gels and electrotransferred to PVDF membranes. Following the supplier's instructions, the membranes were washed, blocked and hybridized with anti-phospho-c-Jun (Ser-63 or Ser-73) polyclonal antibody that specifically recognizes a phosphorylated form of c-Jun. Bands were visualized using a Lumiglo reagent (Cell Signaling Technology Inc.). The membranes were then stripped and re-hybridized with anti-c-Jun antibody that detects both phosphorylated and unphosphorylated forms to normalize sample variations.
SP600125 was dissolved in DMSO to make a stock solution. Eighty-percent confluent prostate cancer cells were serum-starved for 24 hours and pretreated with SP600125 at indicated concentrations for 30 minutes, followed by leptin treatment (12.5 μg/ml): 15 minutes for Western blot analysis or 20 hours for thymidine incorporation assays. DMSO-treated cells were employed as controls.
as §4
Cell lysates (100 μg of protein) were electrophoresed on 10% SDS-polyacrylamide gels and transferred to polyvinylidene difluoride membranes. […]
For orientation: In western blotting, separated proteins are transferred to a membrane and probed.

The mark [5] stands for this setting: DU145, PC-3, LNCaP-FGC and HepG2 cells, 1.0 μg/ml.

For “leptin: Recombinant human leptin purchased from R&D Systems; major adipose cytokine”, in assay [1] (12.5 μg/ml leptin, serum-free), the “live cell mass (MTT)” value is reported as “did not influence”. For the same molecule, in assay [2] (12.5 μg/ml leptin, serum-free), the “living cells (MTT)” value is listed as “increased living cells”. For the same molecule, the “time of peak JNK activation after addition” value in assay [3] (DU145, 12.5 μg/ml leptin) amounted to 15 min; in assay [3] (PC-3, 12.5 μg/ml leptin) it was 15 min. In addition, the “time of return of JNK activation to the basal level” value in assay [3] (DU145, 12.5 μg/ml leptin) was 45 min. Also, the JNK activity entry is recorded as “stimulated JNK activity” in assay [3] (DU145, 12.5 μg/ml leptin, up to 60 minutes); “did not influence JNK activity” in assay [3] (LNCaP-FGC, 12.5 μg/ml leptin, up to 60 minutes); “stimulated JNK activity” in assay [3] (PC-3, 12.5 μg/ml leptin, up to 60 minutes). Moreover, the “c-Jun phosphorylation on Ser-63 and Ser-73” value in assay [4] (DU145 and PC-3 cells, 12.5 μg/ml leptin) is “stimulated c-Jun phosphorylation”.

B1: f-adiponectin: Recombinant human full-length (non-proteolytic) adiponectin, about 30-kDa polypeptide; lot mainly HMW form (protein, UniProt Q15848 1-244, looked up)
chain: MLLLGAVLLLLALPGHDQETTTQGPGVLLPLPKGACTGWMAGIPGHPGHNGAPGRDGRDGTPGEKGEKGDPGLIGPKGDIGETGVPGAEGPRGFPGIQGRKGEPGEGAYVYRSAFSVGLETYVTIPNMPIRFTKIFYNQQNHYDGSTGKFHCNIPGLYYFAYHITVYMKDVKVSLFKKDKAMLFTYDQYQENNVDQASGSVLLHLEVGDQVWLQVYGEGERNGLYADNDNDSTFTGFLLYHDTN
modifications: full-length
notes: Recombinant human full-length (non-proteolytic) adiponectin, about 30-kDa polypeptide; lot mainly HMW form
For B1, the “effect on DHT-stimulated cell growth (MTT)” value in assay [1] (1 μg/ml f-adiponectin, 10 nM DHT) is listed as “significantly suppressed”. Also, the “effect on the conditioned medium stimulation of cell growth (MTT)” value in assay [1] (1 μg/ml f-adiponectin) and in assay [2] (1 μg/ml f-adiponectin) was “drastically suppressed” each time. Moreover, the “effect on the doxorubicin suppression of cell growth (MTT)” value in assay [1] (1 μg/ml f-adiponectin) and in assay [2] (1 μg/ml f-adiponectin) was “enhanced the doxorubicin suppression” in each case. Moreover, the “cell growth (MTT) at concentrations up to 1 μg/ml” value in assay [1] (serum-free) and in assay [2] (serum-free) was “inhibited cell growth in a dose-dependent manner” in each case. The “concentration at which the inhibitory effect on cell growth saturated” value in assay [1] (MTT) and in assay [2] (MTT) was 1 µg/mL each time. Also, the “time of peak JNK activation after addition” value in assay [3] (setting [5]) was 10 min. In addition, in assay [3] (DU145, PC-3, LNCaP-FGC and HepG2 cells, 1.0 μg/ml, up to 60 minutes), the JNK activation result is “further stimulated JNK activation”. Besides, the “c-Jun phosphorylation at Ser-63” value in assay [4] (setting [5]) was “augmented c-Jun phosphorylation at Ser-63”. The “c-Jun phosphorylation at Ser-73” value is reported as “stimulated Ser-73 phosphorylation” in assay [4] (DU145, PC-3 and HepG2 cells, 1.0 μg/ml); “quite modest” in assay [4] (LNCaP-FGC cells, 1.0 μg/ml).
